Experimental data as given in patent US8008452B2, “Phosphorylated Ndr kinase” (Novartis Forschungesstiftung, Zweigniederlassung Friedrich …, priority 2002, dated 2011).

Legend:
GST-NDR1 [1] = assay: GST-NDR1 kinase assay (peptide kinase assay); type: biochemical, human
Procedure: 1 microgram of purified recombinant GST-NDR1 wild type and mutants (without further treatment or autophosphorylated for 2 h in the presence or absence of 1 mM CaCl2 and […] (Sigma)) were assayed in 20 microliter of reaction mixture containing 20 mM Tris-HCl pH 7.5, 10 mM MgCl2, 1 mM DTT, 100 microM [gamma-^32P]ATP (˜0.5 microCi/microliter), and 1 mM NDR1 substrate peptide ([…]; SEQ ID NO:22). After 30 mins incubation at 30° C., reactions were stopped with 50 mM EDTA, and 10 microliters of reaction mixture were spotted onto 2 cm^2 squares of P81 phosphocellulose paper (Whatman). These were subsequently washed for 4×5 min and 3×20 min in 1% phosphoric acid and once in acetone before counting in a liquid scintillation counter. One unit of NDR1 activity was defined as the amount which catalyses the phosphorylation of 1 nmol peptide substrate in 1 min.
Specific activity of GST-NDR1 mutants was also measured by a peptide kinase assay as described above. For this purpose, 1 microgram of purified GST-NDR1 wild type and alanine mutants were left without further treatment or autophosphorylated for 2 h in the presence or absence of 1 mM CaCl2 and […].

GST-NDR1 [2] = assay: Immunodetection of GST-NDR1 phosphorylated on Ser281 or Thr444 after in vitro autophosphorylation; type: biochemical, human; conditions: in vitro autophosphorylation with or without Ca2+/S100B
Procedure: Either 1 microgram GST-NDR1 or HA-NDR1 immunoprecipitated from 100 microgram COS-1 detergent extracts as described above was separated on 10% SDS-PAGE and immunoblotted 2 h at RT or overnight at 4° C. with anti-Ser281P antisera (1:1000) in the presence of 50 microg/ml competing unphosphopeptide or anti-Thr444P purified antibody (1:500). Both antibodies were detected with horseradish peroxidase-conjugated donkey anti-rabbit Ig antibody (Amersham biosciences) and developed by ECL (chemiluminescence; Amersham Pharmacia Biotech).
To reliably quantify the effect of S100B on NDR1 phosphorylation status, rabbit polyclonal antibodies were raised against phosphoepitopes comprising Ser281 or Thr444. GST-NDR1 mutants were treated essentially as described in Example 2 and detected either with anti-NDR1_C-term antiserum or polyclonal antibodies recognising NDR1 phosphorylated on Ser281 or Thr444.

B1: S281A: NDR1 alanine mutant of phosphorylation residue Ser281; GST fusion or HA-tagged (protein)
chain: MAMTGSTPCSSMSNHTKERVTMTKVTLENFYSNLIAQHEEREMRQKKLEKVMEEEGLKDEEKRLRRSAHARKETEFLRLKRTRLGLEDFESLKVIGRGAFGEVRLVQKKDTGHVYAMKILRKADMLEKEQVGHIRAERDILVEADSLWVVKMFYSFQDKLNLYLIMEFLPGGDMMTLLMKKDTLTEEETQFYIAETVLAIDSIHQLGFIHRDIKPDNLLLDSKGHVKLSDFGLCTGLKKAHRTEFYRNLNHSLPSDFTFQNMNSKRKAETWKRNRRQLAFATVGTPDYIAPEVFMQTGYNKLCDWWSLGVIMYEMLIGYPPFCSETPQETYKKVMNWKETLTFPPEVPISEKAKDLILRFCCEWEHRIGAPGVEEIKSNSFFEGVDWEHIRERPAAISIEIKSIDDTSNFDEFPESDILKPTVATSNHPETDYKNKDWVFINYTYKRFEGLTARGAIPSYMKAAK
modifications: left off: small tags and cut ends
notes: NDR1 alanine mutant of phosphorylation residue Ser281; GST fusion or HA-tagged
GST-NDR1 [1]; autophosphorylated 2 h in the absence of CaCl2 and S100B
  Specific activity of GST-NDR1 variants, −S100B: 0.514
GST-NDR1 [1]; autophosphorylated 2 h in the presence of 1 mM CaCl2 and 10 mM bovine S100B
  Specific activity of GST-NDR1 variants, +S100B: 0.952
GST-NDR1 [1]; compared with wild type
  kinase activity of GST-NDR1 mutant (in words): almost undetectable
GST-NDR1 [1]; left without further treatment
  Specific activity of GST-NDR1 variants, CTRL: 0.16
GST-NDR1 [2]
  phosphorylation of GST-NDR1 on Ser281 and Thr444 (phosphospecific antibodies): entirely abolishes the autophosphorylation on Thr444
